Values joined by “and” are separate entries in the source; they are usually repeats but may differ in a detail not shown here. Identical values can stand only once.
What was measured:
[1] = target: T1, protein containing the extracellular domain of mouse TREM2 fused to Fc (mouse, UniProt Q99NH8 19-171); assay: SPR (Biacore)
T1 construct: extracellular domain; also called Mouse TREM2-Fc; not shown: Fc
T1 sequence (looked up): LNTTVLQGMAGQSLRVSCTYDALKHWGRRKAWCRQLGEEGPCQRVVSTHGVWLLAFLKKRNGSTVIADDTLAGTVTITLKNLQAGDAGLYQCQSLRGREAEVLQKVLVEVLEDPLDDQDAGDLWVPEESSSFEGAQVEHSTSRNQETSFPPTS
Excerpt: (§1) A Surface Plasmon Resonance (Biacore) assay was used to assess the binding of humanized CGX101 (hCGX101), an IgG4 antibody, to the extracellular domain of human TREM2 and to a protein containing the extracellular domain of mouse TREM2 fused to Fc.

[2] = target: T2, extracellular domain (ECD) of human TREM2 (human, UniProt Q9NZC2 19-174); assay: SPR (Biacore)
T2 construct: also called Human TREM2-ECD; human TREM2-extracellular domain (ECD)
T2 sequence: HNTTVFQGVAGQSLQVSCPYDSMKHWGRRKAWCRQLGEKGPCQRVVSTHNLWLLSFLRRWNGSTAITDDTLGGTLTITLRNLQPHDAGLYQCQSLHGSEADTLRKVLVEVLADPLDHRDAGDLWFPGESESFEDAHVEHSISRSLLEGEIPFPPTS
Excerpt: as §1

Kd [1]: 18.6 nM
koff [1]: 0.00106 s⁻¹
kon [1]: 57000 M⁻¹ s⁻¹
Kd [2]: 5.74 nM and 5.73 nM
koff [2]: 0.000715 s⁻¹
kon [2]: 125000 M⁻¹ s⁻¹
B1: humanized CGX101 (hCGX101), an IgG4 antibody (antibody, V domains shown)
VH: EVQLVQSGAEVKKPGESLKISCKGSGYTFTDYNIHWVRQMPGKGLEWMGYIYPKNGGTGYTQKFKSQVTISVDNSISTAYLQWSSLKASDTAMYYCARRTARASWFAFWGQGTLVTVSS
VL: DIVMTQSPATLSVSPGERATLSCKSSQSLLYSSNQKNYLAWYQQKPGQAPRVLIYWASTRESGIPARFSGSGSGTEFTLTISSLQSEDFAVYYCQQYYNYPFTFGQGTKLEIK
notes: also called hIgG4; huIgG4
